Measurements as given in the DeepSol protein solubility set.

Assay: soluble on expression in E. coli; label from the status in PepcDB or PDB records

Sequence	soluble on expression in E. coli
MTIAQQERPVAASPYRFEAEMTSGLERVAAHHHDLTLTSVFQPIFSLSHMRAVGYEALLRAHDALDRPVSPLDVFGEAARHGEAAQVDRLAQALHLENFARFGAEREWLFLNVHPGVLTDPFQAAALFANLKRLEIPPRRIVLEVLEQRADDIERLADAVREFREQGFLIALDDFGAGHSNIERIWQLNPDIVKLDRIMLSHAQHRAGLTAILHGLVTLLHEAGKLVLIEGIETEHEAQIALACDADFVQGHFFGRP	not soluble
GSHMLITPRNIFRHELIGLSVRIARSVHRDIQGISGRVVDETRNTLRIEMDDGREITVPKGIAVFHFRTPQGELVEIDGRALVARPEERIKKKFRKP	soluble
STEDSVKAVKRAADDDPHTETEHEDKKLKTDQEERKYPKKKVALLMAYSGKGYYGMQRNARNSQFKTIEDELVTALVGARCIPEGHAEEMKKMSFQRSARTDKGVSAVGRVVSLKVWMIENILEKINAHLPPRIRVLGCKRVTGGFNSKNNCYARTYSYMLPTVAFSPKDYNQEDTSFRLTSDTLQTVNRLFCLYKGTHNFHNFTSQKGHRDPSAMRYITHMSCGEPFIRKDVEFAVITVRGQSFMMHQIRKMIGLVIAVVKGYVDEGVMEKSWGEEKVGVSKAPGLGLVLERVHFDGYNKRFGGDGIHETLEWTEQEEAIADFKEKHIYPTIVDTELNERSMVNWMTSLCIHDFEETATGNQDRKDDDEDGSASD	soluble
DWVIPPISSPENEKGPFPKNLVQIKSNKDKEGKVFYSITGQGADTPPVGVFIIERETGWLKVTEPLDRERIATYTLFSHAVSSNGNAVEDPMEILITVTDQNDNKPEFTQEVFKGSVMEGALPGTSVMEVTATDADDDVNTYNAAIAYTILSQDPELPDKNMFTINRNTGVISVVTTGLDRESFPTYTLVVQAADLQGEGLSTTATAVITVTD	soluble
MSDLVSYHLDDGVATLTLNNGKVNAISPDVIIAFNAALDQAEKDRAIVIVTGQPGILSGGYDLKVMTSSAEAAINLVAQGSTLARRMLSHPFPIIVACPGHAVAKGAFLLLSADYRIGVAGPFSIGLNEVQIGMTMHHAGIELARDRLRKSAFNRSVINAEMFDPEGAMAAGFLDKVVSVEELQGAALAVAAQLKKI	not soluble
MGSDKIHHHHHHMTHPLLAIDNLSIAFRQQGETQTVVHNLSLEVAVGETLALVGESGSGKSISALSVLRLLPTPPASYPSGDIRFHGQSLLHADEATLRGVRGNRIAMIFQEPMVSLNPLHTLEKQLYEVLSLHRGMRKQAARGEILDCLERVGIRQAPRRLADYPHQLSGGERQRVMIAMALLTRPELLIADEPTTALDVSVQAQILQLLRELKQELNMGLLFITHNLSIVRQLADRVAVMQNGRCVEHNDCRALFSAPAHPYTQRLLDSEPDGEPVPLAADAPVLLQADDLKVAFPVRKGILRRVVDHHRVVNSLSFQLRAGETLGLVGESGSGKSTTGLALLRLIPSGGKITFAGQPIQGRNRRQLLPLRRQMQVVFQDPNSSLNPRLTAQQIIEEGLRVHQPTLTAAEREQAVILAMQEVGLDPASRQRYPAAFSGGQRQRIAIARALIVKPQLIVLDEPTSSLDKTVQAQILNLLKALQRKHQLAYIFISHDLGVVRALCHQVMVLRQGEVVEQGECKSVFSAPRHEYTRQLLALS	not soluble
MSIIKKIVFKRFNSTLKKTALHDLHVSLGGTMVPYAGYSMPVLYKGQTHIESHNWTRTNAGLFDVSHMLQSKLSGPHSVKFLQRVTPTDFNALPVGSGTLSVLLNPQGGVVDDTIITKENDDNEFYIVTNAGCAERDTEFFHDELQNGSTLDCQWKIIEGRSLLALQGPKAKDVLEPLLSKTAPGKDLKELFFGQRHEFALKDGSLVQIARGGYTGEDGFEISIANEKAVEFAEQLLANPVMKPIGLAARDSLRLEAGMCLYGHELDESITPVEAALNWVISKSRRDLVDQKYWFNGYAKIMDQLNNKTYSKVRVGFKYLKKGPAARNGVKIFLPDAETEVGLVTSGSASPTLNNINIGQAYVQKGYHKKGTKLLVQVRNKFYPIELAKMPLVPTHYYKQ	not soluble
MADRNLRDLLAPWVAGLPARELREMTLDSRVAAAGDLFVAVVGHQADGRRYIPQAIAQGVAAIIAEAKDEASDGEIREMHGVPVVYLSQLNERLSALAGRFYHEPSENMRLVAVTGTNGKTTTTQLLAQWSQLLGETSAVMGTVGNGLLGKVIPTENTTGSAVDVQHVLASLVAQGATFGAMEVSSHGLVQHRVAALKFAASVFTNLSRDHLDYHGDMAHYEAAKWMLYSTHHHGQAIVNADDEVGRRWLASLPDAVAVSMEGHINPNCHGRWLKAEAVEYHDRGATIRFASSWGEGEIESRLMGAFNVSNLLLALATLLALGYPLTDLLKTAARLQPVCGRMEVFTAPGKPTVVVDYAHTPDALEKALQAARLHCAGKLWCVFGCGGDRDKGKRPLMGAIAEEFADIVVVTDDNPRTEEPRAIINDILAGMLDAGQVRVMEGRAEAVTNAIMQAKDNDVVLIAGKGHEDYQIVGTQRLDYSDRVTAARLLGVIA	not soluble
DIKMTQSPSSMYASLGERVTITCKASQDINSYLNWFQQKPGKSPKTLIYRTNRLVDGVPSRFSGSGSGQDYSLTISSLEYEDMGIYYCLQYDEFPYTFGSGTKLEIKRTVAAPSVFIFPPSDEQLKSGTASVVCLLNNFYPREAKVQWKVDNALQSGNSQESVTEQDSKDSTYSLSSTLTLSKADYEKHKVYACEVTHQGLSSPVTKSFNR	soluble
MQMIHKEGWIEVICGSMFSGKSEELIRRVRRATYGRLKVQVFKPAIDNRYSEQEVVSHNGNKVCAIPVERAMSILEQWSEDTDIVAIDEVQFFDEDVIGVVDYLADHGVRVICAGLDQDFRGEPFEPTRTLMAMAEYVTKLQAICPVCGSPASRTQRLIDGKPASYHDPIILVGAAEAYEPRCRHCHQVTNKPSKLPETASSGELEHHHHHH	soluble
AHHHHHHGSKARIIYRASFDAAHAVKIEEWEELHGHTFSLEVVVEGEIKKGYVMDFLKLKKVVDGVVKELDHRNLNKIMDNPTTENIALWISERIRKNLPGDVKLKRLSLWEGNEFGVELEW	soluble
MPSPTVTSPQVAVNDIGSSEDFLAAIDKTIKYFNDGDIVEGTIVKVDRDEVLLDIGYKTEGVIPARELSIKHDVDPNEVVSVGDEVEALVLTKEDKEGRLILSKKRAQYERAWGTIEALKEKDEAVKGTVIEVVKGGLILDIGLRGFLPASLVEMRRVRDLQPYIGKEIEAKIIELDKNRNNVVLSRRAWLEQTQSEVRSEFLNNLQKGTIRKGVVSSIVNFGAFVDLGGVDGLVHVSELSWKHIDHPSEVVQVGDEVTVEVLDVDMDRERVSLSLKATQEDPWRHFARTHAIGQIVPGKVTKLVPFGAFVRVEEGIEGLVHISELAERHVEVPDQVVAVGDDAMVKVIDIDLERRRISLSLKQANEDYTEEFDPAKYGMADSYDEQGNYIFPEGFDAETNEWLEGFEKQRAEWEARYAEAERRHKMHTAQMEKFAAAETAGRGADDQSSASSAPSEKTAGGSLASDAQLAALREKLAGSALEHHHHHH	not soluble
DHYNCVSSGGQCLYSACPIFTRIQGTCYRGRARCCR	soluble
MNSILICGGAGYIGSHAVKKLVDEGLSVVVVDNLQTGHEDAITEGAKFYNGDLRDKAFLRDVFTQENIEAVMHFAADSLVGVSMEKPLQYYNNNVYGALCLLEVMDEFKVDKFIFSSTAATYGEVDVDLITEETMTNPTNTYGETKLAIEKMLHWYSQASNLRYKIFRYFNVAGATPNGIIGEDHRPETHLIPLVLQVALGQREKIMMFGDDYNTPDGTCIRDYIHVEDLVAAHFLGLKDLQNGGESDFYNLGNGNGFSVKEIVDAVREVTNHEIPAEVAPRRAGDPARLVASSQKAKEKLGWDPRYVNVKTIIEHAWNWHQKQPNGYEK	soluble
MRLFAINAGNFKLDGGAMFGVVPKSIWNKLNPADSNNLCTWATRCLLIENGKQLVLIDTGLGDKQDESFFRHYYRDTPQTWDTLLKPYGFHSSDITDVVLTHLHFDHVGGALEKKGDKIVPTFSNARYWSNTRHWDWAVEPNPREKASFLKDNLFPLQESGQLYFVDTQNLPFEWMDFIFVDGHTEQQMLPLITTPAEKKILYAADLLPSAGHIPMPYIMSYDVRPLVSMQEKERVFNQVLAEDWTVFLEHDLSNACISLQQTEKGIRLNNVFQISDFNLEHHHHHH	not soluble
